Results from patent US20220402989A1 (Regeneron, published 2022).

B1: mAb9048 (antibody, V domains shown)
VH: QVQLVQSGAEVKRPGSSVKVSCKVSGVTFRNFAIIWVRQAPGQGLEWMGGIIPFFSAANYAQSFQGRVTITPDESTSTAFMELASLRSEDTAVYYCAREGERGHTYGFDYWGQGTLVTVSS
VL: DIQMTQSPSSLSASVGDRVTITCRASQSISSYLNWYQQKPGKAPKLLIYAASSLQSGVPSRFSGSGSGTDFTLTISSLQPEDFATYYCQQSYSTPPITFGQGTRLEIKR
notes: The full chains are those of H4H9048 (human IgG4 Fc with S108P); also called H4H9048
B2: REGN2810 (antibody, human IgG4 S228P, kappa, V domains shown)
VH: EVQLLESGGVLVQPGGSLRLSCAASGFTFSNFGMTWVRQAPGKGLEWVSGISGGGRDTYFADSVKGRFTISRDNSKNTLYLQMNSLKGEDTAVYYCVKWGNIYFDYWGQGTLVTVSS
VL: DIQMTQSPSSLSASVGDSITITCRASLSINTFLNWYQQKPGKAPNLLIYAASSLHGGVPSRFSGSGSGTDFTLTIRTLQPEDFATYYCQQSSNTPFTFGPGTVVDFRR
notes: Human IgG4 Fc with the S108P hinge mutation; also called mAb7798; cemiplimab
B3: mAb29512 (antibody, V domains shown)
VH: QVQLVQSGTEVRKPGSSVKVSCKTSGVTFNNYAITWVRQAPGQGLEWMGGIIPVFSPPNYAQKFQGRVTITADESTNTAYMELNSLRSDDTAIYFCAREGERGYTYGYDYWGQGTLVTVSS
VL: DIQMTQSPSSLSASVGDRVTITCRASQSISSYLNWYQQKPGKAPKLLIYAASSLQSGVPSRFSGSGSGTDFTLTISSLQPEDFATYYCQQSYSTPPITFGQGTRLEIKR
notes: The full chains are those of H4H29512 (human IgG4 Fc with S108P); also called H4H29512

Experiments:
[1] = target: T1, human PD-1 expressed with a C-terminal myc-myc-hexahistidine tag (human); experiment: SPR (Biacore), antibody captured via anti-human Fc, hPD-1.mmH in solution, 25 C
T1 construct: also called hPD-1.mmH; hPD-1.mmh
T1 sequence (chain, as listed by the source limits assumed): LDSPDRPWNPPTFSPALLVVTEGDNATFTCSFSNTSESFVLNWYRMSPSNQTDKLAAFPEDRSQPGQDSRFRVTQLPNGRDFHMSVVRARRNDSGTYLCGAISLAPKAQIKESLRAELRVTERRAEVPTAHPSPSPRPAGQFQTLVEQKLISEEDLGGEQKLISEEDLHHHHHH
Protocol: The CM5 Biacore sensor surface was derivatized by amine coupling with a monoclonal mouse anti-human Fc antibody (GE, #BR-1008-39). All Biacore binding studies were performed in a buffer composed of 0.01M HEPES pH 7.4, 0.15M NaCl, 3 mM EDTA, 0.05% v/v Surfactant P20 (HBS-EP running buffer). […] Antibody-reagent association was monitored for 4 or 5 minutes, while dissociation in HBS-EP running buffer was monitored for 10 minutes. […] All binding kinetics experiments were performed at 25° C.
Kinetic association (kₐ) and dissociation (kd) rate constants were determined by fitting the real-time sensorgrams to a 1:1 binding model using Scrubber 2.0c curve fitting software. Binding dissociation equilibrium constants (KD) and dissociative half-lives (t½) were calculated from the kinetic rate constants as: […]

[2] = target: human PD1 (amino acids M1-L288 of NP_005009.2 with a 2Q=>E mutation) stably expressed on engineered reporter … (human, UniProt Q15116 25-288); experiment: cell-based or functional assay
Chain of human PD1 (amino acids M1-L288 of NP_005009.2 with a 2Q=>E mutation) stably expressed on engineered reporter … (Q15116 25-288, change not shown): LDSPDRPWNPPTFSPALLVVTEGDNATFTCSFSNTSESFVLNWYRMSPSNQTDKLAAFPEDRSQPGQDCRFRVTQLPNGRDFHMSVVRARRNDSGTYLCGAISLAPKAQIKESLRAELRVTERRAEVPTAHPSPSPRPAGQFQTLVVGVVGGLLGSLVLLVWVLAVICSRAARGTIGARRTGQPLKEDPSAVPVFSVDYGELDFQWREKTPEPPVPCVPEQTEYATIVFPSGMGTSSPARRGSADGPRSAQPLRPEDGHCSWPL

[3] = target: T2, human PD1 expressed endogenously on YT/STAT5 luc/Cl4 cells (human, UniProt Q15116 25-288); experiment: flow cytometry (FACS) titration on YT/STAT5 luc/CL4 cells with endogenous hPD1, APC anti-human Fc-gamma secondary, MFI_APC
T2 construct: whole, on cells; also called hPD1; PD1+ cells
T2 sequence (Q15116 25-288): as the sequence (Q15116 25-288, change not shown) above
Protocol: To compare hPD1 binding of αhPD1-IL2Rα-IL2 proteins to their respective parental anti-hPD1 antibodies, YT/STAT5 luc/Cl4 cells expressing endogenous levels of hPD1 were washed twice with FACS wash (PBS+2% FBS) and resuspended at 1×10\hat{ }6 cells/ml in FACS wash. Cells (100 μl/well) were then plated in 96 well U bottom plates. Cells were spun down (1200 RPM, 5 minutes) and resuspended in 100 μl/well of the various antibody dilutions listed in mAb clone IDs. The antibody titrations were prepared starting at 20 μg/ml with a 6-fold dilution using FACS wash. Cells were incubated with the antibodies for 30 minutes at 4° C. The unbound antibodies were then removed by washing the cells twice using FACS wash. The cells were then resuspended in 100 μl/well of 1:200 dilution of APC-anti-human Fcγ secondary antibody. The cells were incubated for 30 minutes at 4° C. The unbound antibodies were then removed by washing the cells twice using FACS wash. The cells were then resuspended in 160 μl/well of FACS wash and run to test binding using BD FACSCanto™ Flow Cytometer.

| Binder | 90 nM or 100 nM hPD-1.mmH Bind (RU) [1] [RU] | Kd [1] [nM] | koff [1] [s⁻¹] | kon [1] [M⁻¹ s⁻¹] | t1/2 [1] [min] | Fold induction, AP1-Luc PD1 antagonistic assay [2] [fold] | EC50 [3] [nM] | EC50 (M), AP1-Luc PD1 antagonistic assay [2] [M] |
| --- | --- | --- | --- | --- | --- | --- | --- | --- |
| B1 | 52.7 | 8.95 | 0.00123 | 137000 | 9.4 | 1.24 | 3.48 |  |
| B2 | 88.7 | 2.56 | 0.000253 | 98800 | 45.7 | 19.2 | 0.774 | 3.67e-09 |
| B3 | 124 | 3.1 | 0.000427 | 138000 | 27.1 | 1.29 | 5.69 |  |
